Measured values from patent US20160264684A1, “GLYCAN-INTERACTING COMPOUNDS AND METHODS OF USE” (SIAMAB THERAPEUTICS, INC., priority 2013, published 2016).
Several values for one entry are separate records, joined by “and”; a condition that tells them apart may be missing. Equal entries are not always repeated.

Experiments:
AcSTn-PAA ELISA = assay type: binding; conditions: 200 ng/well PAA antigen; 1:5 dilutions from 1 μM
Description: (§1) Anti-STn serum titer is determined using a murine anti-STn bovine submaxillary mucin (BSM) ELISA together with serum profiles observed by glycan microarray. 96-well plates are coated with 1 μg/well of BSM and incubated overnight at 4° C. O-acetylation of BSM antigen is removed by treating wells with 0.1 M sodium hydroxide. Specific binding to STn is determined by treatment of wells with sodium periodate. Periodate treatment destroys the C6 side chain of sialic acid; therefore antibodies raised against STn should not bind to periodate-treated wells. Wells are blocked with PBS 1% ovalbumin (OVA). Serum samples to be assayed are serially diluted in PBS 1% OVA. […] Detection of anti-STn antibodies present in serum is determined using an HRP-conjugated polyclonal goat anti-mouse IgG antibody (Jackson Immunoresearch, West Grove, Pa.). […] Optical densities are measured at 490 nm using a Spectramax microplate reader (Molecular Devices, Sunnyvale, Calif.). The serum titer is obtained by comparison of OD values with a cutoff value calculated as two standard deviations above the mean of optical density values of the negative control. […]
(§2) 18D2 and 18C7 antibodies were further characterized by ELISA comprising antigens other than BSM. […] Binding of anti-STn antibodies was detected using a goat anti-mouse IgG-HRP conjugated antibody (Jackson Immunoresearch Laboratories, West Grove, Pa.). […]

[1] = Glycan microarray analysis, Tn antigen or other glycans; assay type: binding
Description: (§3) Optimized glycan arrays comprise 71 chemically synthesized and well-defined glycans, most of which comprise Neu5Ac and Neu5Gc glycan pairs.
(§4) 300 ml of epoxy blocking buffer is prepared by combining 15 ml of 2 M Tris buffer (pH 8) with 0.9 ml of 16.6 M ethanolamine and 284.1 ml of distilled water. The solution is filtered using a 0.2 μM nitrocellulose membrane. The epoxy buffer solution as well as 1 L of distilled water are pre-warmed to 50° C. Glass slides are arranged in a slide holder and quickly submerged in a staining tub with the warmed epoxy blocking buffer. Slides are incubated in the epoxy blocking buffer for 1 hour at 50° C. with periodic shaking to deactivate epoxy binding sites. Next, slides are rinsed and blocked with PBS with 1% OVA at 25° C. for one hour. Serum samples are diluted 1:1000 in PBS with 1% OVA and added to the glycan array for one hour at 25° C. After extensive washing, binding of polyclonal serum antibodies are detected by incubating glycan microarray slides with Cy3-conjugated anti-mouse IgG (Jackson Immunoresearch, West Grove, Pa.) for one hour. […]
(§5) 18D2 and 18C7 clones were expanded and binding properties of these hybridomas were determined by glycan microarray analysis according to Example 4. […] No binding to Tn antigen or other glycans was detected.

GcSTn-PAA ELISA = assay type: binding; conditions: 200 ng/well PAA antigen; 1:5 dilutions from 1 μM
Description: as §1, §2

[2] = Glycan microarray analysis, 9-O-acetylated GcSTn; assay type: binding
Description: as §3, §4, §5

[3] = test system: ST6GalNAc 1 transfected MDA-MB-231 cells; test: Flow cytometry-based analysis of antibody binding, STn+ cells; assay type: cell-based, human
Description: Flow cytometry-based analysis is carried out to elucidate the curve-dose response for binding of antibodies to cell surface antigens. For these analyses, three cell lines are employed.
MDA-MB-231 cells are human breast cancer cells. They are grown in Earle's Minimum Essential Medium supplemented with 10% fetal calf serum (FCS), 100 μg/ml penicillin, 100 UI/ml streptomycin and 45 μg/ml gentamycin. MCF-7 cells are also human breast cancer cells and are grown under the same conditions as MDA-MB-231 cells. Stably transfected versions of MDA-MB-231 and MCF-7 cells (clone TAH3.P10 for MDA-MB-231 cells and clone A12.1 for MCF-7 cells) that over express GalNAc α2,6-sialyltransferase (ST6GalNAc 1,) are also cultured under the same conditions with the exception of an added 1 mg/ml of G418 to support cells expressing the transgene. ST6GalNAc 1 is an enzyme capable of sialylating GalNAc. […]
For analysis, cells are harvested using StemPro Accutase (Life Technologies, Carlsbad, Calif.) and washed with PBS comprising 5% FBS before pelleting by light centrifugation. Cell numbers and viability are determined by trypan blue dye exclusion analysis and cell concentrations are adjusted to 5×10^6 cells/ml in PBS with 5% FBS. […] Cells are combined with 50 μl solutions of antibody being analyzed or control antibodies and incubated for 1 hour at 4° C. […]

EC50 (AcSTn-PAA ELISA): 1.71 nM
binding to Tn antigen or other glycans [1]: No binding
EC50 (GcSTn-PAA ELISA): 1.57 nM
EC50, flow cytometry binding to cell-associated STn ([3]; ST6GalNAc 1 transfected MDA-MB-231 cells (STn expressed on MDA cells)): 44.08 nM and 74.51 nM
EC50 ([3]; no unit printed (same values in nM in b551, b556)): 65.8 nM
B1: 18D2: anti-STn monoclonal antibody from mouse #4436; IgG2b κ; heavy chain SEQ ID NO 1, light chains SEQ ID NO 2 and 3 (antibody, V domains shown)
VH: QVTLKESGPGILQPSQTLSLTCSFSGFSLSTSNMGIGWIRQPSGKGLEWLAHIWWHDDKYYNPSLKSRLTISKDISNNQVFLKITSVDTADTATYYCAQVPFYYGTSFDVWGTGTTVTVSS
VL 1: DIVMTQSPATLSVTPGDRVSLSCRASQSISDYLHWYQQKSHESPRLLIKYASQSISGIPSRFSGSGSGSDFTLSINSVEPEDVGVYYCQNGHSFPLTFGAGTKLELK
VL 2: QIVLTQSPAIMSASPGETVTMTCSASSSITYMHWYQQKPGTSPKRWIYDTSKLASGVPARFSGSGSGTSYSLTISSMEAEDAATYYCHQRSSYTFGGGTKLEIKR
mean fluorescence intensity, Neu5,9Ac5Gc-α2,6-GalNAc [2]: about 4,000
